Results from IntAct's records for PubMed 31515488.

B1: LIM/homeobox protein Lhx4 (Homo sapiens), Q969G2 (parent)
chain: MMQSATVPAEGAVKGLPEMLGVPMQQIPQCAGCNQHILDKFILKVLDRHWHSSCLKCADCQMQLADRCFSRAGSVYCKEDFFKRFGTKCTACQQGIPPTQVVRKAQDFVYHLHCFACIICNRQLATGDEFYLMEDGRLVCKEDYETAKQNDDSEAGAKRPRTTITAKQLETLKNAYKNSPKPARHVREQLSSETGLDMRVVQVWFQNRRAKEKRLKKDAGRHRWGQFYKSVKRSRGSSKQEKESSAEDCGVSDSELSFREDQILSELGHTNRIYGNVGDVTGGQLMNGSFSMDGTGQSYQDLRDGSPYGIPQSPSSISSLPSHAPLLNGLDYTVDSNLGIIAHAGQGVSQTLRAMAGGPTSDISTGSSVGYPDFPTSPGSWLDEMDHPPF
partner: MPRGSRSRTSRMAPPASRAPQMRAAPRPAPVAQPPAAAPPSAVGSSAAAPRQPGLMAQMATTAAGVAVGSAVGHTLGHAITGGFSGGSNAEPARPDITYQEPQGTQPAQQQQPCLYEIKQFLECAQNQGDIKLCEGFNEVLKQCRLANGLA
B2: Growth arrest and DNA damage-inducible protein GADD45 gamma (Homo sapiens), O95257 (parent)
chain: MTLEEVRGQDTVPESTARMQGAGKALHELLLSAQRQGCLTAGVYESAKVLNVDPDNVTFCVLAAGEEDEGDIALQIHFTLIQAFCCENDIDIVRVGDVQRLAAIVGAGEEAGAPGDLHCILISNPNEDAWKDPALEKLSLFCEESRSVNDWVPSITLPE
B3: Protein Dr1 (Homo sapiens), Q01658 (parent)
chain: MASSSGNDDDLTIPRAAINKMIKETLPNVRVANDARELVVNCCTEFIHLISSEANEICNKSEKKTISPEHVIQALESLGFGSYISEVKEVLQECKTVALKRRKASSRLENLGIPEEELLRQQQELFAKARQQQAELAQQEWLQMQQAAQQAQLAAASASASNQAGSSQDEEDDDDI
partner: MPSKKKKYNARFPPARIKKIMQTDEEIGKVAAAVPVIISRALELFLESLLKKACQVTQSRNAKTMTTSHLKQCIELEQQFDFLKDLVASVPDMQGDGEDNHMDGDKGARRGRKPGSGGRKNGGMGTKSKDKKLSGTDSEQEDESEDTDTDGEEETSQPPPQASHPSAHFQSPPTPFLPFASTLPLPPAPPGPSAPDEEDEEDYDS
B4: Caspase recruitment domain-containing protein 9 (Homo sapiens), Q9H257 (parent)
chain: MSDYENDDECWSVLEGFRVTLTSVIDPSRITPYLRQCKVLNPDDEEQVLSDPNLVIRKRKVGVLLDILQRTGHKGYVAFLESLELYYPQLYKKVTGKEPARVFSMIIDASGESGLTQLLMTEVMKLQKKVQDLTALLSSKDDFIKELRVKDSLLRKHQERVQRLKEECEAGSRELKRCKEENYDLAMRLAHQSEEKGAALMRNRDLQLEIDQLKHSLMKAEDDCKVERKHTLKLRHAMEQRPSQELLWELQQEKALLQARVQELEASVQEGKLDRSSPYIQVLEEDWRQALRDHQEQANTIFSLRKDLRQGEARRLRCMEEKEMFELQCLALRKDSKMYKDRIEAILLQMEEVAIERDQAIATREELHAQHARGLQEKDALRKQVRELGEKADELQLQVFQCEAQLLAVEGRLRRQQLETLVLSSDLEDGSPRRSQELSLPQDLEDTQLSDKGCLAGGGSPKQPFAALHQEQVLRNPHDAGLSSGEPPEKERRRLKESFENYRRKRALRKMQKGWRQGEEDRENTTGSDNTDTEGS
B5: 60 kDa heat shock protein, mitochondrial (Homo sapiens), P10809 (parent)
chain: MLRLPTVFRQMRPVSRVLAPHLTRAYAKDVKFGADARALMLQGVDLLADAVAVTMGPKGRTVIIEQSWGSPKVTKDGVTVAKSIDLKDKYKNIGAKLVQDVANNTNEEAGDGTTTATVLARSIAKEGFEKISKGANPVEIRRGVMLAVDAVIAELKKQSKPVTTPEEIAQVATISANGDKEIGNIISDAMKKVGRKGVITVKDGKTLNDELEIIEGMKFDRGYISPYFINTSKGQKCEFQDAYVLLSEKKISSIQSIVPALEIANAHRKPLVIIAEDVDGEALSTLVLNRLKVGLQVVAVKAPGFGDNRKNQLKDMAIATGGAVFGEEGLTLNLEDVQPHDLGKVGEVIVTKDDAMLLKGKGDKAQIEKRIQEIIEQLDVTTSEYEKEKLNERLAKLSDGVAVLKVGGTSDVEVNEKKDRVTDALNATRAAVEEGIVLGGGCALLRCIPALDSLTPANEDQKIGIEIIKRTLKIPAMTIAKNAGVEGSLIVEKIMQSSSEVGYDAMAGDFVNMVEKGIIDPTKVVRTALLDAAGVASLLTTAEVVVTEIPKEEKDPGMGAMGGMGGGMGGGMF
partner: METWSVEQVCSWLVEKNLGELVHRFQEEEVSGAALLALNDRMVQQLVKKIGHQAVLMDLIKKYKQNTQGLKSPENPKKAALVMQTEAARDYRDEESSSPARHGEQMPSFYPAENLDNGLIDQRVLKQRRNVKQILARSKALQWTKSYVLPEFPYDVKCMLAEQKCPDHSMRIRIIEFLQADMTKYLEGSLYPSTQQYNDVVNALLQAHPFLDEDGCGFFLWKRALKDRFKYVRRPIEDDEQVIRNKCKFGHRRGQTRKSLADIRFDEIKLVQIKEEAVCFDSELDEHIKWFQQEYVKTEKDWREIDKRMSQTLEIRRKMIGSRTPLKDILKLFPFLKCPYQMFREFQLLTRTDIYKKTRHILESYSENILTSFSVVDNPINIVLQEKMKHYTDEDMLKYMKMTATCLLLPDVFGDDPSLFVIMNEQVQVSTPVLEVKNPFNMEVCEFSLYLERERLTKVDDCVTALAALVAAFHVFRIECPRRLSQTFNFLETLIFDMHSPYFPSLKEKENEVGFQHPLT
B6: "tRNA (guanine-N(7)-)-methyltransferase non-catalytic subunit WDR4" (Homo sapiens), P57081 (parent)
chain: MAGSVGLALCGQTLVVRGGSRFLATSIASSDDDSLFIYDCSAAEKKSQENKGEDAPLDQGSGAILASTFSKSGSYFALTDDSKRLILFRTKPWQCLSVRTVARRCTALTFIASEEKVLVADKSGDVYSFSVLEPHGCGRLELGHLSMLLDVAVSPDDRFILTADRDEKIRVSWAAAPHSIESFCLGHTEFVSRISVVPTQPGLLLSSSGDGTLRLWEYRSGRQLHCCHLASLQELVDPQAPQKFAASRIAFWCQENCVALLCDGTPVVYIFQLDARRQQLVYRQQLAFQHQVWDVAFEETQGLWVLQDCQEAPLVLYRPVGDQWQSVPESTVLKKVSGVLRGNWAMLEGSAGADASFSSLYKATFDNVTSYLKKKEERLQQQLEKKQRRRSPPPGPDGHAKKMRPGEATLSC
partner: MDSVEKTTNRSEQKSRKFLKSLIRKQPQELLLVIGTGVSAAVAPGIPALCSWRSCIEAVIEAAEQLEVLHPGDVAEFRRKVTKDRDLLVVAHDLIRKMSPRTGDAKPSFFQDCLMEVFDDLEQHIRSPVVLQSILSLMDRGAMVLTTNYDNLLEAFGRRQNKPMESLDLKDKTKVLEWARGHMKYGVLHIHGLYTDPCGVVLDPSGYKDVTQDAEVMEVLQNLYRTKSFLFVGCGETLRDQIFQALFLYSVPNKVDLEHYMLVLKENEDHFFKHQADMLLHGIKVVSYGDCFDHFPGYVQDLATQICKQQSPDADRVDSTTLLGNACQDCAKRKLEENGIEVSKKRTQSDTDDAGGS

Variants of: B1
Conditions: with chch2_human CHCHD2, Q9Y6H1

| effect of a mutation on the interaction | Variant |
| --- | --- |
| with no effect | N328S |

Variants of: B2
Conditions: with af1l1_human AFAP1L1, Q8TED9
Chain of af1l1_human AFAP1L1, Q8TED9 (Q8TED9 whole entry): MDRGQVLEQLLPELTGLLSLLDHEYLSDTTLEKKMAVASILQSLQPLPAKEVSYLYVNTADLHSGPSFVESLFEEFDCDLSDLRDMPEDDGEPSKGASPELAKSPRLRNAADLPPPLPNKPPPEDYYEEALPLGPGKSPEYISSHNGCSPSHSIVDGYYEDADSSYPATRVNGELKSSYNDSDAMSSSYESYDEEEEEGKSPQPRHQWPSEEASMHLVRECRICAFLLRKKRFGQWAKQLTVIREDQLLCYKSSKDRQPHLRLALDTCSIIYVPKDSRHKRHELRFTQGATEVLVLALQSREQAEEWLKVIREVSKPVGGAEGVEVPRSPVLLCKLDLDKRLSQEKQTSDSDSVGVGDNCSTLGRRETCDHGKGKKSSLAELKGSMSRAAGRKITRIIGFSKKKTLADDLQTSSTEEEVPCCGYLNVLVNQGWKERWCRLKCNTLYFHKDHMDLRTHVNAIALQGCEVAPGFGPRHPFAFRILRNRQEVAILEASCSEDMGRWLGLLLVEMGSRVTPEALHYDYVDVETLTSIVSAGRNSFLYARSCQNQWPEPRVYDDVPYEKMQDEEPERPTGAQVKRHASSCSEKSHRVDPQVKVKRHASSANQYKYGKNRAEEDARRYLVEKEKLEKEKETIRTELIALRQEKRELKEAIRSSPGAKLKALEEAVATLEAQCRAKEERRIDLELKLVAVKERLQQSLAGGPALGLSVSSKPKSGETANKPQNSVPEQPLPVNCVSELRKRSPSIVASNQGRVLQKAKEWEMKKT

| effect of a mutation on the interaction | Variant |
| --- | --- |
| with no effect | G112S |

Variants of: B2
Conditions: with rwd2b_human RWDD2B

| effect of a mutation on the interaction | Variant |
| --- | --- |
| disrupting interaction strength | G112S |

Variants of: B3
Conditions: with nc2a_human DRAP1, Q14919

| effect of a mutation on the interaction | Variant |
| --- | --- |
| with no effect | E171D |

Variants of: B4
Conditions: with KIAA0408, Q6ZU52
Chain of KIAA0408, Q6ZU52 (Q6ZU52 whole entry): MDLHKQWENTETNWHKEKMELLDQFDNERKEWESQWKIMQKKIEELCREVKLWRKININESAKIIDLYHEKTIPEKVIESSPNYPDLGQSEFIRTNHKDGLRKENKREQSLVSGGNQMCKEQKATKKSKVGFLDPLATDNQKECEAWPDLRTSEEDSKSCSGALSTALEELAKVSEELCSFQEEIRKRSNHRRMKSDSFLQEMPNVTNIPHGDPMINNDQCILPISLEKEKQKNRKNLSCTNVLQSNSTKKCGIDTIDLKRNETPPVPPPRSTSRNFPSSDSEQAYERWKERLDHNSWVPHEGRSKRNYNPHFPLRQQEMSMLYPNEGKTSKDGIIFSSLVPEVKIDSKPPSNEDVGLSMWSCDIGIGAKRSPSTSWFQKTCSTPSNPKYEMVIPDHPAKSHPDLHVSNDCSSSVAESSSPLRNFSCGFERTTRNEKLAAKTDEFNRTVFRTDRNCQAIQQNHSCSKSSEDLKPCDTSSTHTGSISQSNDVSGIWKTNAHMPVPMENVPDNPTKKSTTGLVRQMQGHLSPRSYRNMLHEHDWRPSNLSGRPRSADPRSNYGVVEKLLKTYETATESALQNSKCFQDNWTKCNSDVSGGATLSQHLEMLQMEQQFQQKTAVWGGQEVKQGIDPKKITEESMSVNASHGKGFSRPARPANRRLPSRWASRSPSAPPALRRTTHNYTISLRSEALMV

| effect of a mutation on the interaction | Variant |
| --- | --- |
| with no effect | S12N |

Variants of: B4
Conditions: with tri23_human TRIM23, P36406
Chain of tri23_human TRIM23, P36406 (P36406 whole entry): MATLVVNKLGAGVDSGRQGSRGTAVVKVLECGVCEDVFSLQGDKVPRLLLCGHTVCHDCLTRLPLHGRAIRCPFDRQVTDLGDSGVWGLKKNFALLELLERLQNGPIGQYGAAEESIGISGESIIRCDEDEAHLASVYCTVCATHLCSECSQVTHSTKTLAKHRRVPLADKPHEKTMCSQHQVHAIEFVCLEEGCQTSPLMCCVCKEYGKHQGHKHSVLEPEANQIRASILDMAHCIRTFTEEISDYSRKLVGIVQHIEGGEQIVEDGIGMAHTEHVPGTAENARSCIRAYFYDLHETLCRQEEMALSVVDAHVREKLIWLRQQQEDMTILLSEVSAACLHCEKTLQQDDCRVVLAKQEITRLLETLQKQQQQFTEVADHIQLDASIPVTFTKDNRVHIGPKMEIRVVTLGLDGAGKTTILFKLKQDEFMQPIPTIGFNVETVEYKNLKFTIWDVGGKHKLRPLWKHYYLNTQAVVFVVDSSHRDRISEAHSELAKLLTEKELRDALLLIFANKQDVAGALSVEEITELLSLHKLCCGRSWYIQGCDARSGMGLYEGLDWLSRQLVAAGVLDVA

| effect of a mutation on the interaction | Variant |
| --- | --- |
| with no effect | R173H |

Variants of: B4
Conditions: with KRT19, P08727
Chain of KRT19, P08727 (P08727 whole entry): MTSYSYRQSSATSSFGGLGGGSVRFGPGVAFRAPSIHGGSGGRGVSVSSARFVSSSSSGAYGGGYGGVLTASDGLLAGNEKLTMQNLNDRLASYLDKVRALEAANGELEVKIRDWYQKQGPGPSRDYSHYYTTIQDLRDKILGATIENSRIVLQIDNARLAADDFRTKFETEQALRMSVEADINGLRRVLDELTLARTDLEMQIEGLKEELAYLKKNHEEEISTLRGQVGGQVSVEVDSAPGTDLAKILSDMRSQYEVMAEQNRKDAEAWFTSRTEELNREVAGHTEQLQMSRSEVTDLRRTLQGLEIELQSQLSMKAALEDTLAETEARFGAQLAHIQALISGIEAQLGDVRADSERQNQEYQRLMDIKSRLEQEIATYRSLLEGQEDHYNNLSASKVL

| effect of a mutation on the interaction | Variant |
| --- | --- |
| with no effect | R173H |

Variants of: B4
Conditions: with pak5_human PAK5, Q9P286
Chain of pak5_human PAK5, Q9P286 (Q9P286 whole entry, looked up): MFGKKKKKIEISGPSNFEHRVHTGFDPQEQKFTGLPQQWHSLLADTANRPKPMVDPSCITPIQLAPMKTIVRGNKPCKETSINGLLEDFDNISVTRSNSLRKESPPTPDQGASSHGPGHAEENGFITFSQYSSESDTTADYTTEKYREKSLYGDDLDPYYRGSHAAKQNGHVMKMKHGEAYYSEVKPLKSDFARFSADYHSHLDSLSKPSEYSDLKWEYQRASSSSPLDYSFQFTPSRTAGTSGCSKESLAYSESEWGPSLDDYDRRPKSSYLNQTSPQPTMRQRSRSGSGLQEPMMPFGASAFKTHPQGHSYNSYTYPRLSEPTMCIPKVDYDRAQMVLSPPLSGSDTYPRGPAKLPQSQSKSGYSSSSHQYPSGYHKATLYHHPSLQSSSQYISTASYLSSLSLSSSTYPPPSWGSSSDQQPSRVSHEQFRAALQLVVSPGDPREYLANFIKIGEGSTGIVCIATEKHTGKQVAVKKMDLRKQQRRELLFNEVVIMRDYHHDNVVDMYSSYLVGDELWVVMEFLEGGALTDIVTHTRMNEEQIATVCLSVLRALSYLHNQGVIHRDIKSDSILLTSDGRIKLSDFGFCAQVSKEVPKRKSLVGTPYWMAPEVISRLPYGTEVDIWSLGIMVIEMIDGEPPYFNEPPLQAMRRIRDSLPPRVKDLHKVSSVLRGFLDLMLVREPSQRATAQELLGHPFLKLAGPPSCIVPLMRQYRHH

| effect of a mutation on the interaction | Variant |
| --- | --- |
| with no effect | V385L |

Variants of: B4
Conditions: with zn572_human ZNF572, Q7Z3I7
Chain of zn572_human ZNF572, Q7Z3I7 (Q7Z3I7 whole entry): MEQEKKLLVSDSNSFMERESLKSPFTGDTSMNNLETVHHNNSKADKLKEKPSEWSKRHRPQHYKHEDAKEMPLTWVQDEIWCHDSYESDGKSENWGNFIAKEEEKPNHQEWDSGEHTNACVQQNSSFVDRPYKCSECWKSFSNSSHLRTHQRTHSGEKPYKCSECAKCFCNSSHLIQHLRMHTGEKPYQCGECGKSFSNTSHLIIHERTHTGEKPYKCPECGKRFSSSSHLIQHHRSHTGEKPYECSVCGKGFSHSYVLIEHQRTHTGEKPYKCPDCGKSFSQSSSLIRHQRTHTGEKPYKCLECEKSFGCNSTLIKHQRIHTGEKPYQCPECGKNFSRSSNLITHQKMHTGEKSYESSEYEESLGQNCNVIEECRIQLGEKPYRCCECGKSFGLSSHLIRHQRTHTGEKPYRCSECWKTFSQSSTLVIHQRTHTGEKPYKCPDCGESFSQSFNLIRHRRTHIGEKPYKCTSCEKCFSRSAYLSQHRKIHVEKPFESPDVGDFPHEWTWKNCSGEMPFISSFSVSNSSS

| effect of a mutation on the interaction | Variant |
| --- | --- |
| disrupting interaction strength | V385L |

Variants of: B5
Conditions: with samd3_human SAMD3, Q8N6K7

| effect of a mutation on the interaction | Variant |
| --- | --- |
| with no effect | R9G |
| disrupting interaction strength | R142K |

Variants of: B6
Conditions: with FAM118A

| effect of a mutation on the interaction | Variant |
| --- | --- |
| with no effect | A275T |
